{
  "source": "paper doi:10.1101/2025.07.07.663466",
  "target": "T1, recombinant M. tuberculosis GroEL1 (M. tuberculosis), P9WPE9",
  "T1 chain": "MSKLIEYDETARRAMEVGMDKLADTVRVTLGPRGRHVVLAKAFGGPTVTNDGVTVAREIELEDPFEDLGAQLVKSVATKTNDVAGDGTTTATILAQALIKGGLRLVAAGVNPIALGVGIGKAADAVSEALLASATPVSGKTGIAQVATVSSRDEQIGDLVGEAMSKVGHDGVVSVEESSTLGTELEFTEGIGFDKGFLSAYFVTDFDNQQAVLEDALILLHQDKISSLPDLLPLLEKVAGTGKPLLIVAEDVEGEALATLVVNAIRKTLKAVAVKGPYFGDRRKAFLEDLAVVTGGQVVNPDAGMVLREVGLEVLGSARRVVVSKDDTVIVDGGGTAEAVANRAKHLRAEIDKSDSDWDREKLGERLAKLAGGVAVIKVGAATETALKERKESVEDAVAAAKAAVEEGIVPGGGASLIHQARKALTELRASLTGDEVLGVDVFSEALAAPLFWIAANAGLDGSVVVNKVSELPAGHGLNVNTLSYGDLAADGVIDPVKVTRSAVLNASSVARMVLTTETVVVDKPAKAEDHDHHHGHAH",
  "assay": "native gel or EMSA",
  "conditions": "remark: other sources report otherwise",
  "data": [
    {"binder": "recombinant M. tuberculosis GroEL1, P9WPE9 1-539 (natural protein) MSKLIEYDETARRAMEVGMDKLADTVRVTLGPRGRHVVLAKAFGGPTVTNDGVTVAREIELEDPFEDLGAQLVKSVATKTNDVAGDGTTTATILAQALIKGGLRLVAAGVNPIALGVGIGKAADAVSEALLASATPVSGKTGIAQVATVSSRDEQIGDLVGEAMSKVGHDGVVSVEESSTLGTELEFTEGIGFDKGFLSAYFVTDFDNQQAVLEDALILLHQDKISSLPDLLPLLEKVAGTGKPLLIVAEDVEGEALATLVVNAIRKTLKAVAVKGPYFGDRRKAFLEDLAVVTGGQVVNPDAGMVLREVGLEVLGSARRVVVSKDDTVIVDGGGTAEAVANRAKHLRAEIDKSDSDWDREKLGERLAKLAGGVAVIKVGAATETALKERKESVEDAVAAAKAAVEEGIVPGGGASLIHQARKALTELRASLTGDEVLGVDVFSEALAAPLFWIAANAGLDGSVVVNKVSELPAGHGLNVNTLSYGDLAADGVIDPVKVTRSAVLNASSVARMVLTTETVVVDKPAKAEDHDHHHGHAH", "values": [
      {"measurement": "stoichiometry N", "value": 2}
    ]}
  ]
}
